Assay results published in US8029979B2, “Method for determining the substrate specificity of an enzyme” (JPT Peptide Technologies GmbH, priority 2001, dated 2011).
BA1 = not defined here

Tests used:
protein kinase A [1] = molecular target: T1, protein kinase A (Bos taurus, UniProt P00517); test: Incubation of modified glass surface with different concentrations of protein kinase A (FIG. 4, Example 25); type: biochemical; conditions: protein kinase A 1 U/mL or 10 U/mL, 30 min at 25° C.
T1 construct: purchased Sigma P26452 as printed
Experimental: (§1) FIG. 3. The peptide Leu-Arg-Arg-Ala-Ser-Leu-Gly-NH2, modified at the N-terminus with the dipeptide cysteinyl-β-alanine, was coupled to maleinimido-functionalised surfaces by a Michael addition (maleinimido-functionalised glass surface, Sigma, Silane-Prep™, S4651; as well as maleinimidobutyryl-β-alanine-functionalised, modified polypropylene membranes). The modified glass surfaces were first pre-incubated for 10 minutes using 20 mL of 100 μM ATP solution in 50 mM of sodium phosphate buffer pH 7.5. […] (Example 31). The phosphorylation of the corresponding peptides was detected using a FUJIFILM PhosphorImager. The signal intensity of the respective spot is given below the figures. […] FIG. 4. […] After incubation for 30 min at 25° C. the phosphorylation of the corresponding peptides was detected using a FUJIFILM PhosphorImager. […] After incubation for 30 min at 25° C. the phosphorylation of the corresponding peptides was detected using a FUJIFILM PhosphorImager. […]
After drying the glass surface the quantity of radioactive phosphate incorporated in the glass-surface-bound peptides was determined using a PhosphorImager system (FLA-3000, FUJIFILM) (see FIG. 4).

protein kinase A [2] = molecular target: T1, protein kinase A; test: Incubation of modified glass surface with protein kinase A under cover glass (FIG. 5, Example 26); type: biochemical; conditions: protein kinase A 10 U/mL, 30 min at 25° C.
Experimental: as §1, with “4. The control peptide Leu-Arg-Arg-Ala-Ala-Leu-Gly-NH2, the peptide […] and the synthesis raw product […], each modified at the N-terminus with the dipeptide cysteinyl-β-alanine, were coupled to a maleinimido-functionalised glass surface by a Michael addition (Example 1).” for “4.”

## Cys-BA1-Leu-Arg-Arg-Ala-Ser-Leu-Gly-NH2 ({Cys-BA1}-LRRASLG-NH2; reading uncertain; also: printed as Cys-BA1-Leu-Arg-Arg-Ala-Ser-Leu-Gly-NH2) [compound 85]
Protein kinase A [1]
  signal intensity for the purified amino acid sequence higher than that for the corresponding control amino acid sequence: approximately 300 times
  signal intensity for the purified amino acid sequence higher than that for the synthesis product: 500%
Protein kinase A [2]
  signal intensity for the substrate amino acid sequence higher than that for the control product: 800%
